{"source": "patent US20220348635A1", "about": "“COMPOSITIONS AND METHODS FOR NEUROLOGICAL DISEASES” (Coda Biotherapeutics, Inc., priority 2019, published 2022)", "molecules": {"B1": {"name": "Y115D, L131Q in SEQ ID NO: 33: CR-11 (Chemogenic receptor-11): SEQ ID NO: 33 with substitutions Y115D and L131Q (protein)", "chain": "MRCSPGGVWLALAASLLHVSLQGEFQRKLYKELVKNYNPLERPVANDSQPLTVYFSLSLLQIMDVDEKNQVLTTNIWLQMSWTDHYLQWNVSEYPGVKTVRFPDGQIWKPDILLDNSADERFDATFHTNVQVNSSGHCQYLPPGIFKSSCPMDLKNFPMDVQTCKLKFGSWSYGGWSLDLQMQEADISGYIPNGEWDLVGIPGKRSERFYECCKEPYPDVTFTVTMRRRMGYYLIQMYIPSLLIVILSWISFWINMDAAPARVGLGITTVLTMTTQSSGSRASLPKVSYVKAIDIWMAVCLLFVFSALLEYAAVNFVSRQHKELLRFRRKRRHHKSPMLNLFQEDEAGEGRFNFSAYGMGPACLQAKDGISVKGANNSNTTNPPPAPSKSPEEMRKLFIQRAKKIDKISRIGFPMAFLIFNMFYWIIYKIVRREDVHNQ", "modifications": "synthetic sequence of chimeric LGIC"}}, "format_in_all_cases": "cell-based", "key": {"[1]": {"experiment": "High throughput electrophysiology in HEK293T cells, RG-3487", "method": "To confirm the EC50s determined by plate reader as well as develop a better understanding of maximum current flow, the engineered receptors were subjected to high throughput electrophysiology system, as described below. For HEK293T studies, cDNAs encoding ion channels were cloned into pcDNA3.1 using standard recombination techniques. HEK293T cells from Clontech (Lenti-X™ 293T Cell Line) were cultured in DMEM supplemented with 10% FBS and 1% Pen/Strep to 40-50% confluence using standard cell culture protocols, transfected with ion channel plasmids at a concentration of 18 μg per 15 cm dish using Fugene 6, and grown for an additional 24 hours. Cells were then assayed on a electrophysiological system (IonFluxHT and/or Mercury, Fluxion Biosciences) in which dose-response relationships may be assessed through a microfluidics-based platform for establishing whole cell configurations. […] Data were then analyzed off-line using custom Python scripts to convert data to .csv format, re-plot traces, and apply QC measurements to reject unstable recordings (i.e. thresholding based on access resistance and/or standard deviation in baseline, as well as artifact rejection). Peak currents were then calculated and population data were fit using a 4-parameter logistic equation as described by the Hill Equation. […]"}, "[2]": {"experiment": "Evoked action potentials in transduced rat DRG neurons, RG-3487", "conditions": "RG-3487 (SA-2) at 3 μM", "method": "Using whole cell manual patch clamp electrophysiology in HEK293 cells and rat DRG neurons, the EC50 of the various engineered receptors disclosed herein to Ach and non-native ligands was measured. The rheobase shift was also measured in rat DRG neurons, which reflects the efficacy of the receptors. To calculate the rheobase, first, the amount of current that can produce an action potential was determined. Then the ligand was added, followed by a step wise increase in the current injected up to 700 pA. The current injected after addition of the ligand was divided by, the original current injected to obtain an action potential, to calculate the rheobase. The EC50 was calculated using the Hill equation with peak current measurements from escalating doses of ligand.\n(§1) Acetylcholine at 3.0 mM had no effect on evoked action potentials in transduced neurons (n=4) (FIG. 4B)."}, "[3]": {"experiment": "YFP quench plate reader assay, response to acetylcholine", "conditions": "LX293T YFP reporter cells", "summary_of_the_method": "(§2)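 Anion-flux assay: channel opening admits iodide, quenching a co-expressed YFP reporter in LX293T cells transfected with engineered receptor mutants. Ligands were applied at several doses from 2× solutions in NaI-substituted ECS.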"}, "[4]": {"experiment": "YFP quench plate reader assay, response to ABT-126", "conditions": "LX293T YFP reporter cells", "summary_of_the_method": "as §2"}, "[5]": {"experiment": "Evoked action potentials in transduced rat DRG neurons, acetylcholine", "conditions": "Acetylcholine at 3.0 mM, n=4", "method": "as §1"}}, "data": [{"molecule": "B1", "values": [{"measurement": "fold increased potency to RG-3487 compared to wild type receptor", "setting": "[1]", "result": "over 10 fold"}, {"measurement": "effect on current injection evoked action potentials", "setting": "[2]", "result": "reversibly inhibits"}, {"measurement": "increase in the current required to elicit action potentials", "setting": "[2]; n=7", "result": "~3", "unit": "×"}, {"measurement": "percent quench of YFP fluorescence, 10 uM ach", "setting": "[3]; 10 uM acetylcholine", "result": 9.47, "unit": "%"}, {"measurement": "percent quench of YFP fluorescence, 100 uM ach", "setting": "[3]; 100 uM acetylcholine", "result": 6.12, "unit": "%"}, {"measurement": "percent quench of YFP fluorescence, 1 mM ach", "setting": "[3]; 1 mM acetylcholine", "result": "−1.56", "unit": "%"}, {"measurement": "percent quench of YFP fluorescence, 3 mM ach", "setting": "[3]; 3 mM acetylcholine", "result": 17.57, "unit": "%"}, {"measurement": "percent quench of YFP fluorescence, 50 nM abt", "setting": "[4]; 50 nM ABT-126", "result": "−1.81", "unit": "%"}, {"measurement": "percent quench of YFP fluorescence, 100 nM abt", "setting": "[4]; 100 nM ABT-126", "result": "−2.61", "unit": "%"}, {"measurement": "percent quench of YFP fluorescence, 300 nM abt", "setting": "[4]; 300 nM ABT-126", "result": "−3.78", "unit": "%"}, {"measurement": "percent quench of YFP fluorescence, 1 uM abt", "setting": "[4]; 1 uM ABT-126", "result": "−2.6", "unit": "%"}, {"measurement": "effect on evoked action potentials", "setting": "[5]", "result": "no effect"}]}]}
